Experimental data from patent US20210340245A1 (Janssen / Centocor, published 2021).

Assays:
recombinant human TNFα [1] = biological target: T1, recombinant human TNFα (human, UniProt P01375 77-233, 125I label in the receptor-blocking assay); test: cell-based or functional assay
recombinant human TNFα [2] = biological target: T1, recombinant human TNFα; test: competition radioligand assay: hybridoma supernatant preincubated with 125I-TNFα (5 ng/ml); binding of TNFα to plate-coated p55-sf2 read as cpm bound
recombinant human TNFα [3] = biological target: T1, recombinant human TNFα; test: inhibition of 125I-TNFα binding to plate-coated p55-sf2
Method: 50:1 of p55-sf2 at 0.5 :g/ml in PBS was added to Optiplates to coat the wells during a one-hour incubation at 37° C. Serial dilutions of the eight TNV cell supernatants were prepared in 96-well round-bottom plates using PBS/0.1% BSA as diluent. […] The mixture was preincubated for one hour at RT. […] After 2 hrs at RT, Optiplates were washed three times with PBS-Tween. 100 :l of Microscint-20 was added and the cpm bound determined using the TopCount gamma counter.
The concentrations of the TNV mAbs in their respective cell supernatants were first determined by standard ELISA analysis for human IgG.

B1: GenTNV148.26.12 (antibody, V domains shown)
VH: QVQLVESGGGVVQPGRSLRLSCAASGFIFSSYAMHWVRQAPGNGLEWVAFMSYDGSNKKYADSVKGRFTISRDNPKNTLYLQMNSLRAEDTAVYYCARDRGIAAGGNYYYYGMDVWGQGTTVTVSS
VL: EIVLTQSPATLSLSPGERATLSCRASQSVYSYLAWYQQKPGQAPRLLIYDASNRATGIPARFSGSGSGTDFTLTISSLEPEDFAVYYCQQRSNWPPFTFGPGTKVDIKR
Recombinant human TNFα [1]
  neutralizing TNFα bioactivity: 4 fold
Recombinant human TNFα [2]
  IC50 (read off the curve): ~4 ng/mL
Recombinant human TNFα [3]
  fold better at blocking TNF binding than TNV118 and TNV14: ~4 fold

B2: GenTNV86.14.34 (antibody, human IgG1, V domains shown)
VH: QVQLVESGGGVVQPGRSLRLSCAASGFIFSSYAMHWVRQAPGNGLEWVAFMSYDGSNKKYADSVKGRFTISRDNPKNTLYLQMNSLRAEDTAVYYCARDRGIAAGGNYYYYGMDVWGQGTTVTVSS
VL: EIVLTQSPATLSLSPGERATLSCRASQSVYSYLAWYQQKPGQAPRLLIYDASNRATGIPARFSGSGSGTDFTLTISSLEPEDFAVYYCQQRSNWPPFTFGPGTKVDIK
notes: Totally human IgG1 kappa, hybridoma-derived, tested in cell supernatant; Variable regions identical to TNV148; also called C417A (cell line code)
Recombinant human TNFα [3]
  fold better at blocking TNF binding than TNV118 and TNV14: ~4 fold
